Laboratory results as given in US20130274178A1 (PHILADELPHIA HEALTH AND EDUCATION CORPORATION D B A DREXEL …, published 2013).
Where no end group is shown, it is not given here. [ ]: non-standard residue; d: D form.

B1: HNG-156 (peptide)
peptide: RINNIPWSEAMM
modifications: proline 6 is a 1,2,3-triazole-modified proline (from cis-4-azidoproline, Azp) 4-substituted with ferrocene
B2: UM24 (peptide)
peptide: XNNIPWS
modifications: not fully specified; residue 1 is citrulline (Cit); proline 5 is a 1,2,3-triazole-modified proline (Azp) 4-substituted with ferrocene
notes: Rink amide resin; also called CitNNIPWS

Biological target: T1, HIV-1 92UG037-08 gp120 (HIV-1 strain 92UG037-08)
T1 construct: domain: gp120; also called 92UG037-08 (A); 92Ugo37-08 gp120
Assay: SPR direct binding; gp120 immobilized, peptide as analyte
Method: (§1) All surface plasmon resonance experiments (SPR) were performed on a BIA3000 optical biosensor (Biocore, Inc., Uppsala, Sweden). […] The indicated analytes were passed over the surfaces at a flow rate of 50 μL/minute, with 2.5 minute association phase and 2.5 minute dissociation phase.
Data analysis was performed using BIAEvaluation® 4.0 software (Biacore Inc., NJ). The responses of a buffer injection and responses from the control surface to which the mAb 2B6R was immobilized, were subtracted to account for nonspecific binding. Experimental data were fitted to a simple 1:1 Langmuir binding model with a parameter included for mass transport. The average kinetic parameters (association [kₐ] and dissociation [kd] rates) generated from a minimum of four datasets were used to define equilibrium association (KA) and dissociation constants (KD).

Question: Which Kd does the source give for B1 here?
Answer: 0.0163 µM

Biological target: HIV-1 gp120 on envelope-pseudotyped luciferase-reporter virus (strain not stated, Example 8) (HIV-1, strain )
Assay: cell-based or functional assay

Question: Which “IC50 (µM), pseudotype virus cell infection assay” value does the source give for NNI[Azp‑triazole‑ferrocene]WS-NH2 (Rink amide resin; also called NNIPWS) [UM31] here?
Answer: 10 µM

Question: Which “IC50 (µM), pseudotype virus cell infection assay” value does the source give for INI[Azp‑triazole‑ferrocene]WS-NH2 (Rink amide resin; also called INIPWS) [UM35] here?
Answer: 17 µM

Question: How did the “IC50 (µM), pseudotype virus cell infection assay” value turn out when INNI[Azp‑triazole‑ferrocene]W-NH2 (Rink amide resin; also called INNIPW) [UM15] was run?
Answer: 7.2 µM

Question: For RINNI[Azp‑triazole‑ferrocene]WS-NH2 (Rink amide resin) [UM11], which “IC50 (µM), pseudotype virus cell infection assay” value is on record?
Answer: 10.7 µM

Question: For EINNI[Azp‑triazole‑ferrocene]WS-NH2 (Rink amide resin) [UM13], which “IC50 (µM), pseudotype virus cell infection assay” value is on record?
Answer: 3.2 µM

Question: How did the “IC50 (µM), pseudotype virus cell infection assay” value turn out when B2 was run?
Answer: 4.9 µM

Question: Which “IC50 (µM), pseudotype virus cell infection assay” value does the source give for RINNI[Azp‑triazole‑ferrocene]W (also called RINNIPW) [UM12] here?
Answer: 12.5 µM

Question: With INNI[Azp‑triazole‑ferrocene]WS-NH2 (Rink amide resin; also called INNIPWS) [UM21] as the binder, how does the “IC50 (µM), pseudotype virus cell infection assay” value read?
Answer: 7.4 µM

Question: For FNNI[Azp‑triazole‑ferrocene]WS-NH2 (Rink amide resin; also called FNNIPWS) [UM28], which “IC50 (µM), pseudotype virus cell infection assay” value is on record?
Answer: 11 µM

Question: Which “IC50 (µM), pseudotype virus cell infection assay” value does the source give for ENNI[Azp‑triazole‑ferrocene]WS-NH2 (Rink amide resin; also called ENNIPWS) [UM23] here?
Answer: 6.6 µM

Biological target: T2, HIV-1YU2 gp120 (HIV-1 strain YU-2, UniProt P35961 32-498, limits assumed)
T2 construct: domain: gp120
Assay: ELISA and SPR competition; gp120 binding to sCD4

Question: [Azp‑triazole‑ferrocene]WSEAMM (also called PWSEAMM) [UM10] was tested. Which IC50 did it give?
Answer: > 10 µM

Biological target: T2, HIV-1YU2 gp120
Assay: SPR direct binding, YU2 gp120 (Example 8); Example 8 determination

Question: Which Kd does the source give for B2 here?
Answer: 0.021 µM

Biological target: T2, HIV-1YU2 gp120
Assay: SPR competition; gp120 binding to CD4
Method: as §1

Question: With NNI[Azp‑triazole‑ferrocene]WS-NH2 (Rink amide resin; also called NNIPWS) [UM31] as the binder, how does the IC50 read?
Answer: 5 µM

Question: With EINNI[Azp‑triazole‑ferrocene]WS-NH2 (Rink amide resin) [UM13] as the binder, how does the IC50 read?
Answer: 0.079 µM

Question: With B2 as the binder, how does the IC50 read?
Answer: 0.081 µM

Question: Which IC50 does the source give for RINNI[Azp‑triazole‑ferrocene]W (also called RINNIPW) [UM12] here?
Answer: 0.124 µM

Question: With INNI[Azp‑triazole‑ferrocene]WS-NH2 (Rink amide resin; also called INNIPWS) [UM21] as the binder, how does the IC50 read?
Answer: 0.086 µM

Question: How did the IC50 turn out when FNNI[Azp‑triazole‑ferrocene]WS-NH2 (Rink amide resin; also called FNNIPWS) [UM28] was run?
Answer: 0.105 µM

Question: For KNNI[Azp‑triazole‑ferrocene]WS (also called KNNIPWS) [UM27], which IC50 is on record?
Answer: 0.128 µM

Question: For ENNI[Azp‑triazole‑ferrocene]WS-NH2 (Rink amide resin; also called ENNIPWS) [UM23], which IC50 is on record?
Answer: 0.088 µM

Question: With RNNI[Azp‑triazole‑ferrocene]WS (also called RNNIPWS) [UM22] as the binder, how does the IC50 read?
Answer: 0.123 µM

Biological target: T2, HIV-1YU2 gp120
Assay: SPR direct binding; YU-2 gp120 immobilized (~3500 RU), peptide as analyte
Method: Surface plasmon resonance (SPR) interaction analyses were performed on a Biacore® 3000 optical biosensor (GE). All experiments were carried out at 25° C. using standard PBS, pH 7.4, with 0.005% Surfactant P20.
Regeneration of the surface was achieved by a one 5-second pulse of 10 mM glycine, pH 1.5.

Question: RNI[Azp‑triazole‑ferrocene]WS (also called RNIPWS) [UM32] was tested. Which koff did it give?
Answer: 0.0031 s⁻¹

Question: What about the kon of the same binder?
Answer: 3300 M⁻¹ s⁻¹

Question: Which koff does the source give for ENI[Azp‑triazole‑ferrocene]WS (also called ENIPWS) [UM33] here?
Answer: 0.0018 s⁻¹

Question: And the kon?
Answer: 1100 M⁻¹ s⁻¹

Question: How did the Kd turn out when RINNI[Azp‑triazole‑ferrocene] (also called RINNIP) [UM16] was run?
Answer: > 10 µM

Question: For FNNI[Azp‑triazole‑ferrocene]WS-NH2 (Rink amide resin; also called FNNIPWS) [UM28], which koff is on record?
Answer: 0.0043 s⁻¹

Question: What about the kon of the same binder?
Answer: 380000 M⁻¹ s⁻¹

Question: With KNNI[Azp‑triazole‑ferrocene]WS (also called KNNIPWS) [UM27] as the binder, how does the koff read?
Answer: 0.0088 s⁻¹

Question: And the kon?
Answer: 590000 M⁻¹ s⁻¹

Question: Which results are given for ENNI[Azp‑triazole‑ferrocene]WS-NH2 (Rink amide resin; also called ENNIPWS) [UM23]?
Answer: koff: 0.0034 s⁻¹; kon: 130000 M⁻¹ s⁻¹

Question: Which koff does the source give for RNNI[Azp‑triazole‑ferrocene]WS (also called RNNIPWS) [UM22] here?
Answer: 0.0068 s⁻¹

Question: And the kon?
Answer: 510000 M⁻¹ s⁻¹

Biological target: T3, soluble four domain CD4 (sCD4) (UniProt P01730 26-394, limits assumed)
T3 construct: domain: soluble four domain CD4; also called soluble CD4
Assay: SPR, immobilized sCD4

Question: Does B1 bind?
Answer: no binding (tested: 10 to 600 nM)

Biological target: T2, HIV-1YU2 gp120
Assay: SPR competition; gp120 binding to mAb 17b; Example 8, Table 9

Question: How did the IC50 turn out when NNI[Azp‑triazole‑ferrocene]WS-NH2 (Rink amide resin; also called NNIPWS) [UM31] was run?
Answer: 16 µM

Biological target: T2, HIV-1YU2 gp120
Assay: competition ELISA: mAb 17b (0.1 µg/ml) with peptide on plate-coated YU-2 gp120; blocked ligand mAb 17b (the UM10 curve that is not diamonds)

Question: [Azp‑triazole‑ferrocene]WSEAMM (also called PWSEAMM) [UM10] was tested. Which “IC50 (read off the curve)” value did it give?
Answer: ~0.2 µM

Biological target: T3, soluble four domain CD4 (sCD4)
Assay: SPR, sCD4 surface

Question: Does RINNI[Azp‑triazole‑ferrocene]W (also called RINNIPW) [UM12] bind?
Answer: no binding

Question: Does [Azp‑triazole‑ferrocene]WSEAMM (also called PWSEAMM) [UM10] bind?
Answer: no binding

Biological target: T2, HIV-1YU2 gp120
Assay: ITC; peptide titrated into gp120, 25 °C, PBS pH 7.4
Method: The solutions contained within the calorimetric cells and injector syringes were prepared in PBS, pH 7.4 and thoroughly degassed to avoid bubble formation in the calorimetric cell. The heat evolved upon each injection of the peptide solution was obtained from the integral of the calorimetric signal. The heat associated with binding of a ligand to the protein in the cell was obtained by subtracting the heat of dilution from the heat of reaction. Heats of dilution due to mismatch between the syringe and cell solutions were negligible in all experiments.

Question: NNI[Azp‑triazole‑ferrocene]WS-NH2 (Rink amide resin; also called NNIPWS) [UM31] was tested. Which “-TΔS” value did it give?
Answer: 4.1 kcal/mol

Question: And the ΔH?
Answer: -13.8 kcal/mol

Question: How did the “-TΔS” value turn out when INNI[Azp‑triazole‑ferrocene]W-NH2 (Rink amide resin; also called INNIPW) [UM15] was run?
Answer: 6.6 kcal/mol

Question: And the ΔH?
Answer: -16.6 kcal/mol

Question: What does the source list for B2?
Answer: -TΔS: 6.3 kcal/mol; ΔH: -16.7 kcal/mol

Question: How did the “-TΔS” value turn out when NNI[Azp‑triazole‑ferrocene]W (also called NNIPW) [UM17] was run?
Answer: 3.3 kcal/mol

Question: And the ΔH?
Answer: -13.2 kcal/mol

Question: For RINNI[Azp‑triazole‑ferrocene]W (also called RINNIPW) [UM12], which “-TΔS” value is on record?
Answer: 9.9 kcal/mol

Question: And the ΔH?
Answer: -19.7 kcal/mol

Biological target: T2, HIV-1YU2 gp120
Assay: SPR direct binding; YU-2 gp120 immobilized (~3500 RU), peptide as analyte; Example 9; SPR direct binding, peptide over immobilized gp120

Question: With INI[Azp‑triazole‑ferrocene]WS-NH2 (Rink amide resin; also called INIPWS) [UM35] as the binder, how does the Kd read?
Answer: > 10 µM

Biological target: T2, HIV-1YU2 gp120
Assay: ITC; peptide titrated into gp120, 25 °C, PBS pH 7.4; ITC, 25° C. in PBS, pH 7.4
Method: Data was obtained as 25° C. in PBS, pH 7.4.
The solutions contained within the calorimetric cells and injector syringes were prepared in PBS, pH 7.4 and thoroughly degassed to avoid bubble formation in the calorimetric cell. The heat evolved upon each injection of the peptide solution was obtained from the integral of the calorimetric signal. The heat associated with binding of a ligand to the protein in the cell was obtained by subtracting the heat of dilution from the heat of reaction.

Question: Which “-TΔS” value does the source give for NI[Azp‑triazole‑ferrocene]WS (also called NIPWS) [UM41] here?
Answer: -1.6 kcal/mol

Question: And the ΔH?
Answer: -6.1 kcal/mol

Biological target: HIV-1BaL envelope glycoprotein on pseudotyped virus (HIV-1 strain BaL)
Assay: cell-based or functional assay

Question: With NNI[Azp‑triazole‑ferrocene]WS-NH2 (Rink amide resin; also called NNIPWS) [UM31] as the binder, how does the “IC50 (µM), pseudotyped HIV-1BaL infection of HOS.CD4.CCR5 cells” value (“IC50 (µM) … of HOS.CD4.CCR5 cells” below) read?
Answer: 36 µM

Question: For INI[Azp‑triazole‑ferrocene]WS-NH2 (Rink amide resin; also called INIPWS) [UM35], which “IC50 (µM) … of HOS.CD4.CCR5 cells” value is on record?
Answer: 17 µM

Question: With INNI[Azp‑triazole‑ferrocene]W-NH2 (Rink amide resin; also called INNIPW) [UM15] as the binder, how does the “IC50 (µM) … of HOS.CD4.CCR5 cells” value read?
Answer: 6.9 µM

Question: RINNI[Azp‑triazole‑ferrocene]WS-NH2 (Rink amide resin) [UM11] was tested. Which “IC50 (µM) … of HOS.CD4.CCR5 cells” value did it give?
Answer: 4 µM

Question: With EINNI[Azp‑triazole‑ferrocene]WS-NH2 (Rink amide resin) [UM13] as the binder, how does the “IC50 (µM) … of HOS.CD4.CCR5 cells” value read?
Answer: 1.2 µM

Question: RINNI[Azp‑triazole‑ferrocene]W (also called RINNIPW) [UM12] was tested. Which “IC50 (µM) … of HOS.CD4.CCR5 cells” value did it give?
Answer: 6.8 µM

Question: For [Azp‑triazole‑ferrocene]WSEAMM (also called PWSEAMM) [UM10], which “IC50 (µM) … of HOS.CD4.CCR5 cells” value is on record?
Answer: 35 µM

Question: How did the “IC50 (µM) … of HOS.CD4.CCR5 cells” value turn out when INNI[Azp‑triazole‑ferrocene]WS-NH2 (Rink amide resin; also called INNIPWS) [UM21] was run?
Answer: 7.4 µM

Question: How did the “IC50 (µM) … of HOS.CD4.CCR5 cells” value turn out when FNNI[Azp‑triazole‑ferrocene]WS-NH2 (Rink amide resin; also called FNNIPWS) [UM28] was run?
Answer: 13 µM

Question: With KNNI[Azp‑triazole‑ferrocene]WS (also called KNNIPWS) [UM27] as the binder, how does the “IC50 (µM) … of HOS.CD4.CCR5 cells” value read?
Answer: 23 µM

Question: ENNI[Azp‑triazole‑ferrocene]WS-NH2 (Rink amide resin; also called ENNIPWS) [UM23] was tested. Which “IC50 (µM) … of HOS.CD4.CCR5 cells” value did it give?
Answer: 5.8 µM

Question: Which “IC50 (µM) … of HOS.CD4.CCR5 cells” value does the source give for RNNI[Azp‑triazole‑ferrocene]WS (also called RNNIPWS) [UM22] here?
Answer: 11 µM

Biological target: T2, HIV-1YU2 gp120
Assay: competition ELISA: IgG b12 with UM17 on immobilized YU-2 gp120; blocked ligand b12

Question: How did the “IC50 (read off the curve)” value turn out when NNI[Azp‑triazole‑ferrocene]W (also called NNIPW) [UM17] was run?
Answer: ~3 µM

Biological target: T2, HIV-1YU2 gp120
Assay: competition ELISA: sCD4 (0.1 µg/ml) with peptide on plate-coated YU-2 gp120; blocked ligand sCD4 (diamonds per the legend)

Question: [Azp‑triazole‑ferrocene]WSEAMM (also called PWSEAMM) [UM10] was tested. Which “IC50 (read off the curve)” value did it give?
Answer: ~2 µM

Biological target: T2, HIV-1YU2 gp120
Assay: SPR competition; gp120 binding to mAb 17b
Method: as §1

Question: RINNI[Azp‑triazole‑ferrocene]WS-NH2 (Rink amide resin) [UM11] was tested. Which IC50 did it give?
Answer: 0.168 µM

Question: Which IC50 does the source give for RINNI[Azp‑triazole‑ferrocene]W (also called RINNIPW) [UM12] here?
Answer: 0.218 µM

Question: Which IC50 does the source give for FNNI[Azp‑triazole‑ferrocene]WS-NH2 (Rink amide resin; also called FNNIPWS) [UM28] here?
Answer: 0.174 µM

Question: For KNNI[Azp‑triazole‑ferrocene]WS (also called KNNIPWS) [UM27], which IC50 is on record?
Answer: 0.197 µM

Question: With ENNI[Azp‑triazole‑ferrocene]WS-NH2 (Rink amide resin; also called ENNIPWS) [UM23] as the binder, how does the IC50 read?
Answer: 0.165 µM

Question: With RNNI[Azp‑triazole‑ferrocene]WS (also called RNNIPWS) [UM22] as the binder, how does the IC50 read?
Answer: 0.181 µM
